Where “and” joins values, the source holds several entries; their conditions need not be identical. Equal entries are not always repeated.
Key:
NRK-49F cells = assay: Abnormal cytokinesis: cells having two or more nuclei after transient transfection; format: cell-based, rat; conditions: 72 hours after transfection
Description: (§1) To confirm the generality of this observation, AIM-1 (WT) and AIM-1 (K-R) plasmids were transiently expressed in NRK-49F cells and human diploid fibroblast KD cells and the results were compared with those obtained in a control transfected with vector alone. These constructs were transfected into cell-s with a reporter construct […] to prepare β-galactosidase-expressing plasmids for use as a positive internal control for transfection (Table 1).
(§2) (2) Abnormal Cytokinesis in Cells Expressing AIM-1 (K-R) Plasmid FLAG-AIM-1 (WT), FLAG-AIM-1 (K-R) or a control plasmid pEF/hygI was cotransfected with a reporter construct RSV-β-galactosidase at a ratio of 10:1 into NRK-49F cells and human diploid fibroblast KD cells (a kind gift of late Dr. Takeo Kakunaga) by Lipofectin method. After 24 hours, 1×10^3 cells were seeded per 60 mm dish, and 72 hours after transfection, cells were fixed in 1.25% glutaraldehyde/PBS and stained by a method described in literature (Shu et al., J.C.S. 108:2955-62, 1995) to observe expression of β-galactosidase. MvlLu cells were also tested under the conditions described in (1) B above.
(§3) 1. The figures in the table mean the percentage of cells having two or more nuclei to β-galactosidase positive cells for NRK-49F cells and KD cells or the percentage of cells having two or more nuclei to the total number of cells for MvlLu cells. […]

Mv1Lu cells [1] = assay: FACS analysis of DNA content (propidium iodide); format: cell-based, mink; conditions: 72 hour-induction
Protocol: (§4) MvlLu cells carrying vector alone, wild-type FLAG-AIM-1 (WT) or FLAG-AIM-1 (K-R) were grown in the presence or absence of doxycycline (tetracycline analog) for 24 hours and then subjected to western blot with anti-FLAG antibody (FIG. 4A). […] In addition, the size of these cells was much larger than normal cells (FIGS. 4Bf and 5D). In these abnormal cells, however, spindle. functions including chromosome disjunction and late anaphase spindle elongation as well as nuclear division appeared unaffected (data not shown). This was further confirmed by flow cytometry (FACS) (FIG. 4C). […] Namely, apocytes appeared because karyokinesis advances but cytokinesis is inhibited.
Cell samples were harvested and fixed with ethanol, stained with propidium iodide for FACS analysis.

[2] = test system: human diploid fibroblast KD cells; assay: Abnormal cytokinesis: cells having two or more nuclei after transient transfection; format: cell-based; conditions: 72 hours after transfection
Description: as §1, §2, §3

Mv1Lu cells [3] = assay: Growth for 2 weeks with or without DOX, Giemsa staining; format: cell-based, mink; conditions: grown 2 weeks with or without doxycycline
Protocol: The nuclei of these AIM-1 (K-R)-expressing cells divided 3 to 4 times during 4 to 5 days, resulting in more than 10 nuclei per cell (FIG. 5D).
Mv1Lu cells transfected with FLAG-AIM-1 (WT) or FLAG-AIM-1 (K-R) were grown with or without DOX for 2 weeks and stained with Giemsa's solution.

Mv1Lu cells [4] = assay: Abnormal cytokinesis: cells having two or more nuclei, tetracycline-inducible expression, Giemsa staining; format: cell-based, mink; conditions: for percentage of cells having two or more nuclei to the total number of cells: Mv1Lu, 72 hours
Protocol: as §4
Then, asynchronous cells transfected with vector alone (a, d), FLAG-AIM-1 (WT) (b, e) or FLAG-AIM-1 (K-R) (c, f) were grown with (a-c) or without (d-f) DOX for 72 hours and stained with Giemsa's solution. Results are shown in FIG. 4B, wherein upper panels are called as a, b and c from left to right, and lower panels are called as d, e and f from left to right.
as §2
1. The figures in the table mean the percentage of cells having two or more nuclei to β-galactosidase positive cells for NRK-49F cells and KD cells or the percentage of cells having two or more nuclei to the total number of cells for MvlLu cells. For each cell line, 160 or more cells were tested.

B1: AIM-1 (K-R): kinase-inactive (dominant negative) FLAG-AIM-1 in which lysine at the 109-position was replaced by arginine, expressed from plasmid (protein, UniProt O55099 1-343, looked up, variant K109R)
Aurora kinase B: MAQKENVYPWPYGSKTSQSGLNTLPQRVLRKEPAVTPAQALMNRSNSQSTAVPGQKLTENKGATALQGSQSRQPFTIDNFEIGRPLGKGKFGNVYLAREKKSRFIVALRILFKSQIEKEGVEHQLRREIEIQAHLKHPNILQLYNYFYDQQRIYLILEYAPRGELYKELQKSGTFDEQRTATIMEELSDALMYCHKKKVIHRDIKPENLLLGLQGELKIADFGWSVHAPSLRRKTMCGTLDYLPPEMIEGRMHNEMVDLWCIGVLCYELMVGNPPFESPSHSETYRRIVKVDLKFPSSMPLGAKDLISKLLKHNPSQRLPLEQVSAHPWVRANSRRVLPPSAL
modifications: N-terminal FLAG tag
percentage of cells having two or more nuclei to β-galactosidase positive cells (NRK-49F cells): 62%
cell population with 4N or 8N DNA / cell cycle pattern (FACS) (Mv1Lu cells [1]): dramatically increased
percentage of cells having two or more nuclei to β-galactosidase positive cells [2]: 38% and 38.4%
effect on growth potency (mitotic inhibition) (Mv1Lu cells [3]): miotic inhibition was observed
nuclei per cell (Mv1Lu cells [4]; Mv1Lu cells expressing construct, during 4 to 5 days): more than 10
percentage of cells having two or more nuclei to the total number of cells (Mv1Lu cells [4]; DOX(+) (not induced)): 7.7%
percentage of cells having two or more nuclei to the total number of cells (Mv1Lu cells [4]; DOX(−) (induced)): 68.4%
percentage of cells having two or more nuclei to the total number of cells (Mv1Lu cells [4]; DOX(−) (induced), listed as FLAG-AIM-1 (K-R)): about 68%

— patent US6759212B1, “Cell cycle-regulating proteins” (Chugai Seiyaku Kabushiki Kaisha, priority 1997, dated 2004)
